Data published in US20200299400A1.

Target: human GITR on activated CD4 T cells (human) (UniProt Q9Y5U5)
Assay: FACS binding to activated human CD4 T cells

Chain of human GITR on activated CD4 T cells (human) (Q9Y5U5 26-241): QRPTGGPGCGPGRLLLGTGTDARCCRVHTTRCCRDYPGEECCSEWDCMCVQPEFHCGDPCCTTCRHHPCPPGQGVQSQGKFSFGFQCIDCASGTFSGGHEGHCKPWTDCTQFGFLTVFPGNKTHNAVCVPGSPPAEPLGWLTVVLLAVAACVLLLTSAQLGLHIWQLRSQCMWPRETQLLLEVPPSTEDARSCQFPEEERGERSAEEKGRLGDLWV

EC50 [nM]	Substance
6.72	unrelated hIgG2
132	unrelated hIgG1
